Experimental data taken from the nanobody polyreactivity screen of Harvey et al. (2022).

Assay: yeast display, Sf9 membrane polyspecificity reagent, FACS + sequencing; frameworks hold sequencing errors
Summary of the method: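 Nanobodies came from a synthetic yeast display library in Saccharomyces cerevisiae BJ5465, induced with galactose for 36–48 hours and stained for 1 hour at 4 °C with 10% biotinylated, detergent-solubilized Sf9 membrane reagent. Cells were enriched on streptavidin microbeads and then FACS-sorted, with low and high (top ~1%) gates set on anti-HA fluorescence for expression and streptavidin fluorescence for reagent binding. Each polyreactivity label reflects the gate a clone came from. Genes were amplified by colony PCR, sequenced by MiSeq 2 × 250 and filtered by CDR length.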
With “QVQLVESGGGLVQAGGSLRLSCADSGSIFYGYTMGWYRQAPGKERELVAAISSSGGSTYYADSVKGRFTISRDNAKNTVYLQMNSLKPEDTAVYYCAAYVPYSPDHVEFNYWGQGTQVTVSS” the “polyreactivity (PSR sort gate)” value was “high polyreactivity”.
In the case of “QVQLVESGGGLVQAGGSLRLSCADSGSIFYPYAKGLYRQDPGKERELVATITSSGSSTYYADSVKGRFTISRDNAKNTVYLQMNSLKPEDTAVYYCAAYRVILYYLYDYWGQGTQVTLSS”, the “polyreactivity (PSR sort gate)” value is reported as “low polyreactivity”.
With “QVQLVESGGGLVQAGGSLRLSCADSGSISRNAMGWYRQAPGKERELVAGISQSGGRTYYADSVKGRFTISRDNAKKTVYLQMNSLKPEDSAVYYCNADPRRGPGSVSSVRNNYWGQGTQVTVSS” the “polyreactivity (PSR sort gate)” value was “high polyreactivity”.
For “QVQLVESGGGLVQAGGSLRLSCADSGSTFDSYAMGWSRQAPGKEMDMVAGITWGGGSTYYADSVKGRLTISRDNAKNTVYLQLNSLKPEDTAVYDCAAEEVYYWYTYYYWGEGTQVTVSS”, the “polyreactivity (PSR sort gate)” value was “high polyreactivity”.
For “QVQLVESGGGLVQAGGSLRLSCADSGSTFDSYDMGWYRQAPGKERELVAGISYSSDRTYYADSVKGRFTISRDNAKNTVYLQMNSLKPEDTAVYYCAKDHTGTVQYPLDYWGQGTQVTVSS”, the “polyreactivity (PSR sort gate)” value was “low polyreactivity”.
With “QVQLVESGGGLVQAGGSLRLSCADSGSTFHPYAMGWYRKAPGKERELVAAISWTGGRTYYADSVKGRFTISRDNSKNTVYLQMNSLKPEDTAVYYCAARTYGKVGYWGQGTQVTVSS” the “polyreactivity (PSR sort gate)” value was “high polyreactivity”.
In the case of “QVQLVESGGGLVQAGGSLRLSCADSGSTFRANAMGWYRQAPGKERELVAAISQSGGITYYADSVKGRFTISRDNAKNSVYLQMNSLKPEDTAVYYCAAEYWFYYVDSFYYWGQGTQVTVSS”, the “polyreactivity (PSR sort gate)” value is reported as “high polyreactivity”.
With “QVQLVESGGGLVQAGGSLRLSCADSGSTFVSYAMGWYRQAPGKERELVAVAISWSGGNTYYADSVKGRFTISRDNAKNTVYLQMNSLKPEDTAVYYCAAYGTTGVYRGPGYDYWGQGTQVTVSS” the “polyreactivity (PSR sort gate)” value was “low polyreactivity”.
In the case of “QVQLVESGGGLVQAGGSLRLSCADSGSTFYGNVMGWYRQAPGKERELVAAITRGGTTNYADSVKGRFTISRDNAKNTVYLQMNSLKPEDTAVYYCAKASYWVQASNDYWGQGTQVTVSS”, the “polyreactivity (PSR sort gate)” value is reported as “low polyreactivity”.
With “QVQLVESGGGLVQAGGSLRLSCADSGSTFYTNAMGWYRQAPGKERELVAAINRSGGRTYYADSVKGRFTISRDNAKNTVYLQMNSLKPEDPAVYYCAARYPVRFSTDTARDYYWGQGTQVTVSS” the “polyreactivity (PSR sort gate)” value was “low polyreactivity”.
In the case of “QVQLVESGGGLVQAGGSLRLSCADSGTIFALYAMGWYRQAPGKEREFVAAIRRGTSTKYADSVKGRFTISRDNAKNTVYLQMNSLKPEDTAVYYCNARYYYSSSISRWYDYWGQGTQVTVSS”, the “polyreactivity (PSR sort gate)” value is reported as “high polyreactivity”.
With “QVQLVESGGGLVQAGGSLRLSCADSGYIYPYYAMRWYRQAPGKERELVATITSRGGSTYYADSVKRRFTISRDIAKNTVYLQMNSLKPEDTAVYYCAIEYRYYRRRYDYCGQGTQVTVSS” the “polyreactivity (PSR sort gate)” value was “high polyreactivity”.
With “QVQLVESGGGLVQAGGSLRLSCADTGRTFSRNSMGWYIQAPGKERELVATITRGTITNYADSVKGRFTISRDNAMNTVYLQINSRKPEDTAVYYCNARTLFFPARNRCELSDYWGQGTQVTVSS” the “polyreactivity (PSR sort gate)” value was “low polyreactivity”.
With “QVQLVESGGGLVQAGGSLRLSCADYGFIMLYYALVCYRQAPGKERELVAAISWTGGRTYYADSVKGRFTISRDNAKNTVYLQMNSLKPEDTAVYFCNTVKLFGRKYGYWGQGTQVTVSS” the “polyreactivity (PSR sort gate)” value was “low polyreactivity”.
For “QVQLVESGGGLVQAGGSLRLSCAGSGFTFIRYAMGWYRQAPGKERELVATITRRTGSTYYADSVKGRFTISRDNAKNTVYLQMYSLKPEDTAVYDCAGELYPSWSHTVFHGYNYWGQGTQVTVSS”, the “polyreactivity (PSR sort gate)” value was “high polyreactivity”.
With “QVQLVESGGGLVQAGGSLRLSCAGSGIIFSRYAMGWYRQAPGKERELVAAISSSGGTTYYADSVKGRFTISRDNAKNTVYLQMNSQKPEDTAVYYCYAPAFYKYKSFYAHSGYDYWGQGTQVTVSS” the “polyreactivity (PSR sort gate)” value was “high polyreactivity”.
For “QVQLVESGGGLVQAGGSLRLSCAGSGRIFARNAMGWYRQAPGKARELVAGITWSGSSTYYADSVKGRFTISRDNAKNTVYLQMNRLKPEDTAVYYCAVDYYVGSLRIHHDYWGQGTQVTVSS”, the “polyreactivity (PSR sort gate)” value was “low polyreactivity”.
For “QVQLVESGGGLVQAGGSLRLSCAGSGRIFLDKAMGWYRQAPGKERELVAAINGSGGSTYYADSVKGRFTISRDNAKNTVYLQMNSLKPKIPRSITATKRYIQSLWGFDYWGQGTQVTVSS”, the “polyreactivity (PSR sort gate)” value was “low polyreactivity”.
With “QVQLVESGGGLVQAGGSLRLSCAGSGRTFSTYAMGSDRQAPGKERELVAAITRRGGSTYYADSVKGRFTISRDNAKNTVYLQMNSLKPEDTAVYYCARENPGDSYYDYWGQGTQVTVSS” the “polyreactivity (PSR sort gate)” value was “low polyreactivity”.
For “QVQLVESGGGLVQAGGSLRLSCAGSGSIFGLYAMGWYRQEPGKERELVAAINQSGGSTSYADSVKGRFTISRDNAKNTVYFQMNSLKPEDTAVYYCNRVRLNTEGFDYWGQGTQVTVSS”, the “polyreactivity (PSR sort gate)” value was “low polyreactivity”.
For “QVQLVESGGGLVQAGGSLRLSCAPSGFIFGLYVMGWYRQAPGKERELVAAITTSVGSTYYADSVKGRFTISRDNAKNTVYLQMNSLKPEDTAVYYCAKTSGTIDYDYWGQGTQVTVSS”, the “polyreactivity (PSR sort gate)” value was “low polyreactivity”.
With “QVQLVESGGGLVQAGGSLRLSCAPSGFIFTPYTMGGYRQAPGKERELVAAITDGSSTYYADSVKGRFTISRDNAKNTVYVQMNSLKPEDTAVYYCNADGKPPYISWLYDYWGQGTQVTVST” the “polyreactivity (PSR sort gate)” value was “low polyreactivity”.
For “QVQLVESGGGLVQAGGSLRLSCAPSGFIFVKYVMGWYRQAPGKERELVATITGSTGGTYYADSVKGRFTISRDNAKNTVYLQMNSLKPEDTAVYYCNKDYYYNPGNVASGYDYWGQGTQVTVSS”, the “polyreactivity (PSR sort gate)” value was “low polyreactivity”.
With “QVQLVESGGGLVQAGGSLRLSCAPSGFIFYANDMGWYRQAPGKERELVARITNSGGSTYYADSVKGRFTISRDNAKNTVYLQMNSLKPEDTAVYYCAAWRRFNYSRRYYYWGQGTQVTLSS” the “polyreactivity (PSR sort gate)” value was “high polyreactivity”.
For “QVQLVESGGGLVQAGGSLRLSCAPSGFTFSPYTMGWYRQAPGKETELVATIRYDGTSTYYADSVKGRFTISRDNAKNTVYLQMNSLKPEDTAVYYCNADGSAQDIAELDYWGQGTQVTVSS”, the “polyreactivity (PSR sort gate)” value was “low polyreactivity”.
In the case of “QVQLVESGGGLVQAGGSLRLSCAPSGFTFYTYAMGWYRQAPGKERELVAVISRSGGRTNYADSVKGRFTISRDNAKNTVYLQMNSLKPEDTAVYYCNRYDRQRSWSVGYDYWGQGTQVTVSS”, the “polyreactivity (PSR sort gate)” value is reported as “high polyreactivity”.
In the case of “QVQLVESGGGLVQAGGSLRLSCAPSGGTIAPYAMGWYRQASGKESELDATISNSGTSTNYADSVKGRFTISRDNAKNTVYLQMNSLKPEDTAVYYCAKRYHQYRWRGWLWGFDYWGQGTQVTVLS”, the “polyreactivity (PSR sort gate)” value is reported as “high polyreactivity”.
In the case of “QVQLVESGGGLVQAGGSLRLSCAPSGIIFPTYAMGWYRQAPGKERELVAAIRWNGGSTYYADSVKGRFTISRDNAKNTVFLQMTILKPEDTAVYYCAAGYRGSYKYYYWGQGTQVTVSS”, the “polyreactivity (PSR sort gate)” value is reported as “high polyreactivity”.
With “QVQLVESGGGLVQAGGSLRLSCAPSGIILYRYAMGWYRQAPGKERELVAAITYSGGSTYYADSVKGRFTISRDNAKNSVYLQMNSLNPEDTAVYYCAAESRAGRYYVSKPSNYWGQGTQVTVSS” the “polyreactivity (PSR sort gate)” value was “high polyreactivity”.
For “QVQLVESGGGLVQAGGSLRLSCAPSGIIYRYYGMVWYRQAPGKERELVAVITNSDGSTYYADSVKGRFTISRDNAKNTVYLQQYSLKPEDTAVYYCAARGITSRQRYYWGQGTQVTVSS”, the “polyreactivity (PSR sort gate)” value was “low polyreactivity”.
For “QVQLVESGGGLVQAGGSLRLSCAPSGITFLANTMGGYRQAPGKERELVATITSSGGSTYYADSVKGRFTISRDNAKNTVYLQMNSLKPEDTAGYYCADSDLRYRGNYVYLPSEYWGQGSQVTVSS”, the “polyreactivity (PSR sort gate)” value was “low polyreactivity”.
For “QVQLVESGGGLVQAGGSLRLSCAPSGITFRHYALGGYRQAPGKERELVAAITSRGGSTYYADSVKGRFTISRDNAKNTVYLQMNSLKPEDTAVYYCNKRLYYQRWPAAAREYWGQGTQVTVSS”, the “polyreactivity (PSR sort gate)” value was “high polyreactivity”.
With “QVQLVESGGGLVQAGGSLRLSCAPSGITFWVYVMGWYRQAPGKEREFVADISSGAGTTYYADSVKGRFTISRDNAKNTVYLQMNSLKPEDTAVYYCAARRWWPQWYDYWGQGTQVTVSS” the “polyreactivity (PSR sort gate)” value was “high polyreactivity”.
With “QVQLVESGGGLVQAGGSLRLSCAPSGITFYGNDMGWYRQAPGKERELVAAISSGGITNYADSVKGRFTISRDNAKNSVYLQMNSLKPEDTAVYYCAKDLLYYHITPDGYTWYLPEDSWGQGTQVTVSS” the “polyreactivity (PSR sort gate)” value was “low polyreactivity”.
In the case of “QVQLVESGGGLVQAGGSLRLSCAPSGRIFAGYAMGWYRQAHGKERELVAAISWRGTSTYYADSVKGRFTISRDNAKNTVYLQMNSLKPEDTAVYYCAARYTKGMYYWGQGTQVTVSS”, the “polyreactivity (PSR sort gate)” value is reported as “high polyreactivity”.
In the case of “QVQLVESGGGLVQAGGSLRLSCAPSGRIFGAYGMGWYRQAPGKERELVAAISNGGRTSYADSVKGRFTISRDNAKNTVYLQLNSVKPEDTAVYYCAAVYWPWFGAYDYWGHGTQVTVSS”, the “polyreactivity (PSR sort gate)” value is reported as “high polyreactivity”.
For “QVQLVESGGGLVQAGGSLRLSCAPSGRIFRYNAMGWYRQAPGKERELVAAITSGGSTNYADSVKGRFTISRDNAKNTVYLQMNRLKPEDTAVYYCAVTGYRPYAYRRRYPYDYWGQGTQVTVSS”, the “polyreactivity (PSR sort gate)” value was “high polyreactivity”.
In the case of “QVQLVESGGGLVQAGGSLRLSCAPSGRNFTYYDMGRYRQAPGKEREFVAVISDNDSSTYADSVKGRFTISPDNAKNTVYLQMNRLKPEDTAVYYCNAYRQYRSWRYDYWGQGTQVTVSS”, the “polyreactivity (PSR sort gate)” value is reported as “high polyreactivity”.
In the case of “QVQLVESGGGLVQAGGSLRLSCAPSGRTFGYNAMGWYRQAPGKESELVAGISSSDASTYYADSVKGRFTISRDNAKNTVYLQMNSLKPEDTAVYYCAATFGFFYYQYDYWGQGTQVTVSS”, the “polyreactivity (PSR sort gate)” value is reported as “low polyreactivity”.
For “QVQLVESGGGLVQAGGSLRLSCAPSGRTFGYNGRGWSRQEPGKESELVAAINSGGNTNYADSVKGRFTISRDYAKNTVYLQMNSLKPEDTAVYYCAKYGTLFEPVPNEYDYWGQGTQVTVSS”, the “polyreactivity (PSR sort gate)” value was “low polyreactivity”.
With “QVQLVESGGGLVQAGGSLRLSCAPSGRTFSVHAMGWYRPARGKGRELVAAISWDGGSTYYADSVKGRFTISRDNANNTVYLQMNSLKPEETAVYYCNKDLYYAYDYWGQGTQVTVSS” the “polyreactivity (PSR sort gate)” value was “low polyreactivity”.
In the case of “QVQLVESGGGLVQAGGSLRLSCAPSGRTFYLNAMGWYRPAPGKERELVAAIRFSGGSTYYADSVKGRFTISRDNAKNTVYLQMNSLKPEDTAVYYCNAGPYLSLYPTVSEYGYWGQGTQVTVSS”, the “polyreactivity (PSR sort gate)” value is reported as “low polyreactivity”.
For “QVQLVESGGGLVQAGGSLRLSCAPSGRTIYHYAMGWYRQAPGKERELVAAITWSGGSTYYADSVKGRVTISRDNAKKTVYLQMNSLKPEDTAVYYWARYPARYGGYYDYDYWGQGTQVTVSS”, the “polyreactivity (PSR sort gate)” value was “high polyreactivity”.
